Measurements: the DeepSol protein solubility set

experiment: soluble on expression in E. coli; label from the status in PepcDB or PDB records

For “MIDQTALATEIKRLIKAAGPMPVWRYMELCLGHPEHGYYVTRDPLGREGDFTTSPEISQMFGELLGLWSASVWKAADEPQTLRLIEIGPGRGTMMADALRALRVLPILYQSLSVHLVEINPVLRQKQQTLLAGIRNIHWHDSFEDVPEGPAVILANEYFDVLPIHQAIKRETGWHERVIEIGASGELVFGVAADPIPGFEALLPPLARLSPPGAVFEWRPDTEILKIASRVRDQGGAALIIDYGHLRSDVGDTFQAIASHSYADPLQHPGRADLTAHVDFDALGRAAESIGARAHGPVTQGAFLKRLGIETRALSLMAKATPQVSEDIAGALQRLTGEGRGAMGSMFKVIGVSDPKIETLVALSDDTDREAERRQGTHGLEHHHHHH”, which “soluble on expression in E. coli” value is on record?
The value was “soluble”.

For “MIDRPDTGEGTNYLIVGSDSRAGMSAEEKKKLHTGSAEGKRTDSMMILHTGDNGSTLVSLPRDSDVEIPTFKGSTSGKTYPGTGRHVKLNAAYAEDGPELLVRTIEYNTGLHIDHYVEIGFAGFANIVDSVGGVEMTLDKGFKDTFSGADFKAGKQTLNGEQALAFVRTRHAFAASDLERTKNQQKFLSALAHQVATPSTVLNPFKLYPTLSSGLDTLIVDKDMGLFDLADMFWAMKGVTGGDGTSMNMPISGSSGGNLVWDKAKVKALVNELKNDEKVTVSGNLEHHHHHH”, which “soluble on expression in E. coli” value is on record?
The value was “soluble”.

With “MIDTLKNIKVKDVMTKNVITAKRHEGVVEAFEKMLKYKISSLPVIDDENKVIGIVTTTDIGYNLIRDKYTLETTIGDVMTKDVITIHEDASILEAIKKMDISGKKEEIINQLPVVDKNNKLVGIISDGDIIRTISKII” as the sequence, how does the “soluble on expression in E. coli” value read?
Its value is “soluble”.

For “MIDWPLAELLPHAGDMILIDQVLAFDEEQIRTRLEVRPGGLFNRPDGSLPAWVGVELMAQSVAAYAGCRARQQGLPVELGFLLGTRKFECNVEHFPLGSTLEIHALRSLEDDNGMGVFECHLSGPGITASARLNVFRPPQAADYLHETPLEHHHHHH”, which “soluble on expression in E. coli” value is on record?
Its value is “not soluble”.

For “MIEERFDAIVVGAGMAGNAAALTMAKRGLKVLQIERGEYPGSKNVQGAILYADMLEKLVPDFREDAPLERHLVEQRFWMMDGKSHTGLHHRSEDFNEEKPNRYTIIRAQFDKWLSSKAQEAGAIVLCETTVKELVQDAYGKVIGVITDREGGQVHADVVVLAEGVNGLLGTKAELRERPTPENVALAVKEMHFLPRETIEARFNLKGDEGVVIEAAGTISAGMTGMGFIYTNKESISIGIGCLVSDFQKTGETPYGLLERFKKHPSVAPLIEGSEVKEYAGHLIPEGGYNAIPQLYGDGWVVVGDAAQLNNAMHREGSNLAMTSGRIAAEAIFQVKSRKDPMTKENLALYKKMLDDSFVIKDLKKYKDMPDLLHIRSQNFFLTYPQLVNKALQNFVRVDGTPKIEKEKTTIKSFVSARSWGGLFGDAFRFARAWR”, which “soluble on expression in E. coli” value is on record?
Its value is “not soluble”.

With “MIEIKNLTLQRGLKVLLDKANATVNPGQRVGLIGKNGTGKSSLFALIKGEITQDGGDVSIPKNWRLASVSQETPDLDISALDYVLQGDAELQAFQTALRQAEAQNDGMKQAEYHAKLEE” as the sequence, how does the “soluble on expression in E. coli” value read?
Its value is “not soluble”.

Which “soluble on expression in E. coli” value does the source give for “MIEIKNVNKVFYQGSKEILALKDINLHIAKGTIFGVIGSSGAGKSTLIRCVNMLEAPSSGSIIVDGVDLTTLSKKQLVETRRNIGMIFQHFNLLSSRTVFDNVALPLELAGKDKSQITTKVTELLKLVGLADKHESYPSNLSGGQKQRVAIARALASDPSVLLCDEATSALDPATTQSILELLKEINRKLNITILLITHEMEVVKSICHEVAIIGGGELVEKGTVGDIFAHPKTELAHEFIRSTLDLSIPEDYQARLQPNRVEGSYPLVRMEFTGATVDAPLMSQISRKYNIDVSILSSDLDYAGGVKFGMMVAELFGNEQDDSAAIEYLREHNVKVEVLGYVL” here?
The value was “not soluble”.

For “MIEIKVPELAESITEGTISQWLLNVGDKVEKGGSVVELETDKVNVEIIAEDSGIVSKLLGEPGDTVEVGATIAILDANGAPVAVSTPAPAEQSKQETAEAPKAAAPSAEQTATLQGLPNTNRPIASPAARKMARELGIDLNDVRSTDPLGRVRPHDVQAHAAAPKEAPAAPKSPAPAPVAKTEFEKPVERVKMSRRRQTIAKRLVEVQQTSAMLTTFNEVDMTAIMELRKERKDAFEKKHDVRLGFMSFFTKAVVAALKQFPLLNAEIQGDELIIKKFYDIGIAVAAPDGLVVPVVRDANQLNFAEIESEIRELGKKARDNKLSLKELQGGTFTITNGGVFGSLMSTPILNSPQVGILGMHKIQVRPVAIDNERMENRPMMYIALSYDHRIVDGKEAVSFLVAVKDMLEDPKSLLLEG”, which “soluble on expression in E. coli” value is on record?
The value was “not soluble”.

Which “soluble on expression in E. coli” value does the source give for “MIELAELTKTAGGLVIDQFTQKRERPDSRTMIGSGKLEQMRWAIEVGEIDTVIFNDRLSPRQNVNLEEALGVKVIDRMQLILDIFAMRARSHEGMLQVEEAQLNYLLPRLVGQGIMLSRQGGGIGSKGPGETKLETDRRYIRTRIENIDKALKKVEKTRENIRQKRSKSGIFRIGLIGYTNAGKSSIMNALVGLDKEQYEQNELFATLDATTKAVKLVEDFTVSLTDTVGFIQNLPTELIKAFKSTLEESANVDLLIHVVDASNPHHEIHEQTVLKIMEDLKLTNIPVLNVYNKMDIAPSDFLPTLSPSLQLSIKSESGVQWLKTAILEKLHELFDAFELELPYEKAYQLPELRKSALVQSVVEGEKGYLIKGLIAPELSWKLPNNLEHHHHHH” here?
The value was “not soluble”.

Which “soluble on expression in E. coli” value does the source give for “MIELKGISQHFRGAGGTDVHALRDVDLSIDKGEIFGIIGRSGAGKSTLVRVINLLNRPTSGTVTVAGQSLTALNADGLRQARRKIGMIFQHFNLLSSRTVYDNVALPLELAGTPRERIREIVLPLLELVGLDAHKDRYPAQISGGQKQRVGIARALASQPDVLLSDEATSALDPETTRSILDLLRKINRELGLTIVLITHQMEVIKQVCDRVAVLDAGRVVELGRVIDVFLKPRHDVTRALIGEVISQELPPSVLARVESRLVAARERGGRDHLFRLAFTGAGVDQPVLAQAIRNYGLDFNILHGHIDEIQGQAFGSLAILASGESADIDNAMHFLREQGVVVEEINHVVLEHHHHHH” here?
Its value is “not soluble”.

Which “soluble on expression in E. coli” value does the source give for “MIEPGVNYADLFAKEVRKHPKKYPKTVRLAIDRWYRWKKRKDIWFDVDRANEMMDWVESFIVHTKGDMVGKPFLLEPWEKFIYSWIYGWVKENEKGQVVRVTREAYVQIPKKNGKTLIAVGALGYAMYGEGALSVDCYACASDFAQAQYAAKPFAATILNNPVLLDGTKIFKGPKGTVSSITYDYLHGDMAYTNKFIVQTKNIDNIEGSNPYFVLNDELHKQEKMEQYDNFKSAQISLPQPLMFNISTAGKGSSSVGIRVYKEAKEVLKRDDNDSNFVLIYEPNKGYDWTDRKVWEMCNPNWGISVDLSALESAFKTAQRSAHSKAEFLTKHLDVFVNGADNFFEQDQVEPCLVPTNELGNLSGEPCWIGLDLSKSRDLTCVSLNFPTWDAEGKAILKVKQLYFIPSENIDFREKEDNVPYSELAEQGFVEFCDGKLIDQEQIFHFIEDCMDFYDVQQVNYDPAMSDRLVEKLENLGLECVQVDQYARVLNSPLEDAERLFYEQRIMFDNPLFLYCALNVVVKMDFQGRKVPSKNQSKRKIDGFVAFLCAHKETMDQMIDVNEDDMDEYLDSIYR” here?
The value was “not soluble”.

With “MIEVKPINAEDTYELRHRILRPNQPIEACMFESDLLRGAFHLGGYYGGKLISIASFHQAEHSELQGQKQYQLRGMATLEGYREQKAGSSLIKHAEEILRKRGADLLWCNARTSASGYYKKLGFSEQGEVFDTPPVGPHILMYKRIT” as the sequence, how does the “soluble on expression in E. coli” value read?
Its value is “soluble”.

For “MIFAAIADIHGNCAALEAVLEDIAKLGIKDIVNLGDCFSGPLEAGFTGDVLVGNWIPSIRGNHDRELIERAPENMGSWEKPAHAQLTAAHLDWLHTLPFSMVFRDVAYCCHGSPLGDLDYWLETLSPEGVLKLRPLAEIEERAEGITQPLMLCGHTHIPRAVQLSDGRLIVNPGSVGCPGWKDDTPFDHHVEAGHALATYAVLEETGRGWQVYFRNIRYDNLAMSEMARVNGIPYLADALTNGWLKR”, which “soluble on expression in E. coli” value is on record?
The value was “not soluble”.

Which “soluble on expression in E. coli” value does the source give for “MIFGRTERGKPPVEPVTLKILVAGGFGVGKTTLVGAVSEIRPLRTEEVLTEAGRPVDDISGVEGKHTTTVAMDFGRITLREDLVLYLFGTPGQDRFWFLWDELATGALGAVVLADTRRLEDCFAAVDYFERRSIPFVMGVNCFEEAARYPVEDVRRALDLDDDVPVVLCDARDRESVKEVLIDVVRHAMAHAAERRETVSGLEHHHHHH” here?
Its value is “not soluble”.

For “MIFGVSRTAGMQPHQNKLPPAFPICPPRFLQNKPPAPPLREAVRHSEYPDPRYEMTFQTAFAPPRFEYSGLTLNQDKATKPQTV”, which “soluble on expression in E. coli” value is on record?
Its value is “not soluble”.

With “MIFSDWPWRHWRQVRGEAIALRLNDEQLNWRELCARVDELASGFAVQGVVEDSGVMLRAWNTPQTLLAWLALLQCGARVLPVNPQLPQPLLEELLPNLTLQFALVPDGENTFPALTSLHIQRVEGAHVATWQPTRLCSMTLTSGSTGLPKAAVHTYQAHLASAEGVLSLIPFGDHDDWLLSLPLFHVSGQGIMWRWLYAGARMTVRDKQPLEQMLAGCTHASLVPTQLWRLLVNRSSVSLKAVLLGGAAIPVELTEQAREQGIRCFCGYGLTEFASTVCAKEADGLADVGSPLPGREVKIVNNEVWLRAASMAEGYWRNGQLVSLVNDEGWYATRDRGEMHNGKLTIVGRLDNLFFSGGEGIQTEEVERVIAAHPAVLQVFIVPVADKEFGHRPVAVMEYDHESVDLSEWVKDKLARFQQPVRWLTLPPELKNGGIKISRQALKEWVQRQQ” as the sequence, how does the “soluble on expression in E. coli” value read?
The value was “not soluble”.

Which “soluble on expression in E. coli” value does the source give for “MIGATGSGGTGGHNDVVRQGFICPFCMEDFGEYERLICHVENDHPEEDSSDLAGMFVSNVKGFFDKAKRGIQKLDAKKSIADLASNVETEFTETTEKLVERAPLPRIPKPLPPDEILPGTRRSKTREFLSTRELNINEVAVRTNMLIIRLDRLINGGPKDKDPVKRKEFEREVVPWLDDAEAVCCPLCASRFGLTRRRHHCRLCGRVLCHSCSKFLSFDTAKTLTSSSNPLGDTHIIVEEPNTVENEQELLQPEENGRRSFFSLSQKSMDKMKRAMAGAVQKVHSAATGEEIIAGALNEQDLSEHMRVCNLCLRDLHFRESQMDKKEPPEFVQQYDLMKVMIEEVKNLVPTYVRVVTSLKNGESVYSHKHGEELRSKCLEIQKSIDYVSKKIAEGANDKPNSAKEQQLRKNIRLYAVQALQGLIGQMESLPTAEECSNLIIKRKERRAKDFARVNRTVMKMSSSMPQLQEQHSHLNSTSSVSSFGGPSSIDDGWSAEDNDLVFEPSSIEDDTIQTDHPLYEQREQLRKFLFQASATGKLDEMDILERNLKEIEEEMMRLGLSC” here?
Its value is “not soluble”.

For “MIGGGIGISFRNEFFNPQTPVNIPVQGFSNGARLRLVLLPTSADSRFHINLRTPDDIVLHFNARFDEGAVVNNSTSGGGWQSEDRHANPFQQNKIYTLEFVSNGGIISIFVNGAHFADFVERTPSHGVHLIEIEGGVHVHSAHVSH”, which “soluble on expression in E. coli” value is on record?
The value was “soluble”.

Which “soluble on expression in E. coli” value does the source give for “MIGQEFRQLLIDKWGYSYDVQLRRTQGKIFLQVMWKYLEQASFPLSESQYQEHLDSITNYLNALGGTIQVQTFITQTKERPRLGKAVSIPLDLGDRSSEWIL” here?
The value was “not soluble”.

For “MIGSYLKIDSKPLSYQSSKAVLKHLDYNSRFQLHEQCPSLRNVLKVTPGFLNRLEFVGDCVKINGTTYQLKMTPVKLGSTTNHIQLWINGNLYAKTVSEPQNNKELAYLVCKLLRQAWEAVLYVGTLVYGNLIFPGFPKFFKFHVQHLVIGKDQDASDVLRRFGENFQNSSFKSLELFRTSSFEVPLIQSAEKLIINERMDLSALKSRRVHVEFKIDSKFLTDLIDCWLWNGAVGKTEKEAGSVFIFAMKGFREARMFVDDVKMKFEGKFYVDKR”, which “soluble on expression in E. coli” value is on record?
The value was “not soluble”.

With “MIGYFIITGFAAATLALSTCNLKKVRKPPPATPAKPPAPQKTLKVAPRAAPPRKKKEIFLEEHTPPSTDTDEVSTIPPAEQIRIVENHRRRIGVRPRAGNRVYKKTPSSELVKVENKKSVEKNCKVVKTESGEAEACEKKEDKRNVEKNKKKEKESKEKSKNCYEKKELKKNGSESYAYKKYNKQKNEHIEILVKKTVLRQIRF” as the sequence, how does the “soluble on expression in E. coli” value read?
The value was “not soluble”.
